Results from paper PMC9352680, “A comprehensive thermodynamic model for RNA binding by the Saccharomyces cerevisiae Pumilio protein PUF4”.

T1: PUF4 RNA-binding domain (Saccharomyces cerevisiae, UniProt P25339 537-888)
T1 sequence: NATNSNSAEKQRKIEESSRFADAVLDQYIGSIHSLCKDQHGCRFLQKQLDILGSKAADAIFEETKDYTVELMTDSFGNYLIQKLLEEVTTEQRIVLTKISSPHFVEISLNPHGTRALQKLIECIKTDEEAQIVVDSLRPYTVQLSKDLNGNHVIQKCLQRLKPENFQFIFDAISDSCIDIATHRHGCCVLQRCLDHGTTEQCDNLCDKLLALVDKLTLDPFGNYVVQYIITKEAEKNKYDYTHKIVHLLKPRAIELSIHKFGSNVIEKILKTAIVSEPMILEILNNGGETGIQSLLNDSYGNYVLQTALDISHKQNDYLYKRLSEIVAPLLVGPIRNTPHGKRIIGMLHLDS


Target: T1, PUF4 RNA-binding domain
Experiment: Mg; RNA-MaP; 20 mM Na-HEPES pH 7.4, 30 mM KOAc, 0.75 mM MgCl2, 0.1% Tween-20, 5% glycerol, 0.1 mg/mL BSA, 2 mM DTT; 25 C; 0.0125-409.6 nM protein
Conditions: tags: N-His6-TEV cleaved; C-SNAP kept, Cy3B-labelled; label: tethered on chip by stalled RNA polymerase

Binder	Kd [nM]
Id_ii_S4_P3E.2_K3.1_C3.2_[T-1G]_H3.1_A3.1_F3.1_T3.2 (ssRNA) RNA: UUUGACAACUGAUCGUUCUUUCUCGUGUAUAUAUAUUCUUUCUCGAUCAGUUGUCUUU	1.4
Id_ii_S4_P3E.2_K3.1_C3.2_[T-1G]_H3.1_A3.1_F3.1_T3.2_[T9A]_[A10G] (ssRNA) RNA: UUUGACAACUGAUCGUUCUUUCUCGUGUAUAUAAGUUCUUUCUCGAUCAGUUGUCUUU	6.69
Id_ii_S4_P3E.2_K3.1_C3.2_[C-2A]_[T-1C]_H3.1_A3.1_F3.1_T3.2_[A10G] (ssRNA) RNA: UUUGACAACUGAUCGUUCUUUCUACUGUAUAUAUGUUCUUUCUCGAUCAGUUGUCUUU	39.2
Id_ii_S4_P3E.2_K3.1_C3.2_[C-2A]_[T-1A]_H3.1_A3.1_F3.1_T3.2_[T9A]_[A10C] (ssRNA) RNA: UUUGACAACUGAUCGUUCUUUCUAAUGUAUAUAACUUCUUUCUCGAUCAGUUGUCUUU	9.36
Id_ii_S4_P3E.2_K3.1_C3.2_[T-1C]_H3.1_A3.1_F3.1_T3.2_[T9A]_[A10T] (ssRNA) RNA: UUUGACAACUGAUCGUUCUUUCUCCUGUAUAUAAUUUCUUUCUCGAUCAGUUGUCUUU	1.23
Id_ii_S4_P3E.2_K3.1_C3.2_[C-2A]_[T-1A]_H3.1_A3.1_F3.1_T3.2_[A10G] (ssRNA) RNA: UUUGACAACUGAUCGUUCUUUCUAAUGUAUAUAUGUUCUUUCUCGAUCAGUUGUCUUU	7.52
Id_ii_S4_P3E.2_K3.1_C3.2_[C-2A]_[T-1C]_H3.1_A3.1_F3.1_T3.2_[A10C] (ssRNA) RNA: UUUGACAACUGAUCGUUCUUUCUACUGUAUAUAUCUUCUUUCUCGAUCAGUUGUCUUU	2.26
Id_ii_S4_P3E.2_K3.1_C3.2_[C-2T]_H3.1_A3.1_F3.1_T3.2_[A10T] (ssRNA) RNA: UUUGACAACUGAUCGUUCUUUCUUUUGUAUAUAUUUUCUUUCUCGAUCAGUUGUCUUU	1.75
Id_ii_S4_P3E.3_K3.2_C3.2_[C-2G]_[T-1C]_H3.2_A3.1_F3.1_T3.2_[T9C]_[A10T] (ssRNA) RNA: UUUGACAACUGAUCGUUCUUUCUGCUAUAUAUACUUUCUUUCUCGAUCAGUUGUCUUU	557
Id_ii_S4_P3E.2_K3.1_C3.2_[C-2A]_[T-1A]_H3.1_A3.1_F3.1_T3.2_[T9A]_[A10G] (ssRNA) RNA: UUUGACAACUGAUCGUUCUUUCUAAUGUAUAUAAGUUCUUUCUCGAUCAGUUGUCUUU	13.3
Id_ii_S4_P3E.2_K3.1_C3.2_[T-1A]_H3.1_A3.1_F3.1_T3.2_[T9A] (ssRNA) RNA: UUUGACAACUGAUCGUUCUUUCUCAUGUAUAUAAAUUCUUUCUCGAUCAGUUGUCUUU	5.28
Id_ii_S4_P3E.2_K3.1_C3.2_[T-1G]_H3.1_A3.1_F3.1_T3.2_[A10T] (ssRNA) RNA: UUUGACAACUGAUCGUUCUUUCUCGUGUAUAUAUUUUCUUUCUCGAUCAGUUGUCUUU	1.48
Id_ii_S4_P3E.2_K3.1_C3.2_[T-1A]_H3.1_A3.1_F3.1_T3.2_[T9G]_[A10C] (ssRNA) RNA: UUUGACAACUGAUCGUUCUUUCUCAUGUAUAUAGCUUCUUUCUCGAUCAGUUGUCUUU	2.75
Id_ii_S4_P3E.2_K3.1_C3.2_[C-2A]_[T-1C]_H3.1_A3.1_F3.1_T3.2_[T9A]_[A10T] (ssRNA) RNA: UUUGACAACUGAUCGUUCUUUCUACUGUAUAUAAUUUCUUUCUCGAUCAGUUGUCUUU	2.65
Id_ii_S4_P3E.3_K3.2_C3.2_[C-2G]_[T-1G]_H3.2_A3.1_F3.1_T3.2_[T9A] (ssRNA) RNA: UUUGACAACUGAUCGUUCUUUCUGGUAUAUAUAAAUUCUUUCUCGAUCAGUUGUCUUU	676
Id_ii_S4_P3E.3_K3.2_C3.2_[C-2G]_[T-1G]_H3.2_A3.1_F3.1_T3.2_[A10G] (ssRNA) RNA: UUUGACAACUGAUCGUUCUUUCUGGUAUAUAUAUGUUCUUUCUCGAUCAGUUGUCUUU	562
Id_ii_S4_P3E.3_K3.2_C3.2_[C-2G]_[T-1C]_H3.2_A3.1_F3.1_T3.2_[T9A]_[A10C] (ssRNA) RNA: UUUGACAACUGAUCGUUCUUUCUGCUAUAUAUAACUUCUUUCUCGAUCAGUUGUCUUU	1200
Id_ii_S4_P3E.2_K3.1_C3.2_[T-1G]_H3.1_A3.1_F3.1_T3.2_[T9C]_[A10C] (ssRNA) RNA: UUUGACAACUGAUCGUUCUUUCUCGUGUAUAUACCUUCUUUCUCGAUCAGUUGUCUUU	11.3
Id_ii_S4_P3E.2_K3.1_C3.2_[C-2A]_H3.1_A3.1_F3.1_T3.2_[T9A] (ssRNA) RNA: UUUGACAACUGAUCGUUCUUUCUAUUGUAUAUAAAUUCUUUCUCGAUCAGUUGUCUUU	11.8
Id_ii_S4_P3E.2_K3.1_C3.2_H3.1_A3.1_F3.1_T3.2_[A10T] (ssRNA) RNA: UUUGACAACUGAUCGUUCUUUCUCUUGUAUAUAUUUUCUUUCUCGAUCAGUUGUCUUU	1.14
Id_ii_S4_P3E.2_K3.1_C3.2_[T-1G]_H3.1_A3.1_F3.1_T3.2_[T9A]_[A10C] (ssRNA) RNA: UUUGACAACUGAUCGUUCUUUCUCGUGUAUAUAACUUCUUUCUCGAUCAGUUGUCUUU	8.59
Id_ii_S4_P3E.2_K3.1_C3.2_[C-2T]_H3.1_A3.1_F3.1_T3.2 (ssRNA) RNA: UUUGACAACUGAUCGUUCUUUCUUUUGUAUAUAUAUUCUUUCUCGAUCAGUUGUCUUU	2.14
Id_ii_S4_P3E.2_K3.1_C3.2_[C-2A]_[T-1G]_H3.1_A3.1_F3.1_T3.2_[T9A]_[A10G] (ssRNA) RNA: UUUGACAACUGAUCGUUCUUUCUAGUGUAUAUAAGUUCUUUCUCGAUCAGUUGUCUUU	9.13
UCUCUUCGUAAUAUUAUCUCUU (ssRNA) [Ib_S1_P5E.1_K5.1_C5.1_H5.1_[T1C]_A5.1_[T5A]_F5.1_T5.1]	2020
